Here are results for 2 substances from article doi:10.1101/2025.10.17.683039.

Assay [1] addresses Enoyl-CoA carboxylase/reductase (ECR) from Burkholderia ambifaria (Burkholderia ambifaria). The assay is described as follows: SEC; S200 column; each protein alone (1 mL) and a mixture of equal volumes (500 uL each) of the two proteins; peaks compared. (In gel filtration, larger molecules generally elute earlier.)
The target in assay [2] is Enoyl-CoA carboxylase/reductase (ECR) from Mesorhizobium metallidurans (Mesorhizobium metallidurans). The assay is described as above.
For assay [3] the target is unchanged. The experiment in a line: crystal structure; apo ECR, space group C 1 2 1, 100 K, 1.40 Å, molecular replacement with PDB 6NA3.

In general, stoichiometry N refers to a count of units in the complex or per binding partner.

As for “Enoyl-CoA carboxylase/reductase (ECR) from Burkholderia ambifaria (enzyme)”, the stoichiometry N in assay [1] worked out at 4.
In the case of “Enoyl-CoA carboxylase/reductase (ECR) from Mesorhizobium metallidurans (enzyme)”, the stoichiometry N in assay [2] and in assay [3] was 2 each time.
